{"source": "paper PMC9060444", "about": "(2022)", "molecules": {"B1": {"name": "tagless ElpQ (natural protein)", "chain": "CKNFATGKDIKQNSEGKIKGFVNKILDPVKDKIASSGTKVDEVAKKLQEEEKEELMQGDDPNGSGINPPPVLPENIHNNALVLKAIEQSDGQQEKKVEEAEAKVEENKEKQENTEENIKEKEIIDEQNKQELAKAKEEEQQKEQKRHQEEQQRKAKAEKEKREREEAEQQKRQQEEEEKRQVDNQIKTLIAKIDEINENIDVIKWQTTVGPQGVIDRITGPVYDDFTNGNNSIRETWEGLEEESEDEGLGKLLKELSDARDALRTKLNEGNKPYTGYEEPKLKESVNVSEIKEDLEKLKSKLEEVKKYLKDSSKFEEIKGYISDSQ"}, "B2": {"name": "GST-ElpQ (natural protein)", "chain": "B1 chain"}}, "key": {"[1]": {"target": "human complement C1 complex (human) (UniProt P02745)"}, "[2]": {"target": "GST-ElpB (B. burgdorferi strain B31)", "assay": "SPR; Biacore T200; GST-ElpB or GST-ElpQ immobilised on the sensor chip; C1 complex (twofold series 0.6 to 150 nM), C1r or C1s enzyme or proenzyme injected as analyte; steady-state affinity fits; triplicate"}, "[3]": {"target": "GST-ElpQ (B. burgdorferi strain B31)", "assay": "SPR; Biacore T200; GST-ElpB or GST-ElpQ immobilised on the sensor chip; C1 complex (twofold series 0.6 to 150 nM), C1r or C1s enzyme or proenzyme injected as analyte; steady-state affinity fits; triplicate"}, "[4]": {"target": "human C1r enzyme (activated C1r) (human)", "assay": "ELISA; ELISA-type binding assay: GST-fusion proteins on wells coated with human C1 complex, C1q, C1r enzyme or C1s enzyme; apparent KD by nonlinear regression (GraphPad Prism)"}, "[5]": {"target": "human C1s enzyme (activated C1s) (human)", "assay": "ELISA; ELISA-type binding assay: GST-fusion proteins on wells coated with human C1 complex, C1q, C1r enzyme or C1s enzyme; apparent KD by nonlinear regression (GraphPad Prism)"}, "[6]": {"target": "human complement C1 complex (human) (UniProt P02745)", "assay": "ELISA; ELISA-type binding assay: GST-fusion proteins on wells coated with human C1 complex, C1q, C1r enzyme or C1s enzyme; apparent KD by nonlinear regression (GraphPad Prism)"}, "[7]": {"target": "human C1s enzyme (activated C1s) (human)"}, "[8]": {"target": "T1, human C1s enzyme (activated C1s) (human)", "T1 chain 1": "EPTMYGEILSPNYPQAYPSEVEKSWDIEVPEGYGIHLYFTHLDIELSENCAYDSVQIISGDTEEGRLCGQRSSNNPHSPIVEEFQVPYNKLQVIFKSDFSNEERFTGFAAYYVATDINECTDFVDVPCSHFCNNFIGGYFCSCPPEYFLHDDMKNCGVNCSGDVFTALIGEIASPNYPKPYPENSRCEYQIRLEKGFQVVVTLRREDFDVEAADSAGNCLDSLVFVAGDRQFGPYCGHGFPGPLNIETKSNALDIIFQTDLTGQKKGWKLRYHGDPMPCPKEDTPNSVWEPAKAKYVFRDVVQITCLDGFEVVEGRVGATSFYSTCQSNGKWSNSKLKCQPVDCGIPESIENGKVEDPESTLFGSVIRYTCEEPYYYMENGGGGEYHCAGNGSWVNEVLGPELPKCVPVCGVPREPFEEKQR", "T1 chain 2": "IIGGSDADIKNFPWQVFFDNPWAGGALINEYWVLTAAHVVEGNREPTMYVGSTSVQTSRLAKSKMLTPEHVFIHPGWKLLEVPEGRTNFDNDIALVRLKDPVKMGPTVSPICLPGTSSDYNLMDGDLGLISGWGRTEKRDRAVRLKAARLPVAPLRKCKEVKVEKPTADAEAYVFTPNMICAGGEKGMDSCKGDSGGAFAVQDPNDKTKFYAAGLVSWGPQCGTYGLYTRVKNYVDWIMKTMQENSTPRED", "assay": "SPR"}}, "data": [{"molecule": "BBK32-C (domain or fragment)", "values": [{"measurement": "IC50 of inhibition of C4b deposition from normal human serum on IgM-coated wells (ELISA); by the table's footnote based on the non-GST-tagged BBK32-C construct", "setting": "[1]", "value": 0.018, "unit": "µM"}]}, {"molecule": "human C1s enzyme (activated C1s)", "values": [{"measurement": "Kd", "setting": "[2]", "value": 0.0039, "unit": "µM"}, {"measurement": "Kd", "setting": "[3]", "value": 0.0045, "unit": "µM"}]}, {"molecule": "GST-BBK32 (from UniProt O50835 1-354) (natural protein)", "values": [{"measurement": "IC50 of inhibition of C3b deposition from normal human serum on IgM-coated wells (ELISA)", "setting": "[1]", "value": 0.029, "unit": "µM"}, {"measurement": "IC50 of inhibition of C5b-9 deposition from normal human serum on IgM-coated wells (ELISA)", "setting": "[1]", "value": 0.1, "unit": "µM"}, {"measurement": "IC50 of inhibition of classical-pathway lysis of antibody-sensitised sheep erythrocytes by normal human serum", "setting": "[1]", "value": 0.079, "unit": "µM"}]}, {"molecule": "human C1s proenzyme", "values": [{"measurement": "Kd", "setting": "[2]", "value": 0.27, "unit": "µM"}, {"measurement": "Kd", "setting": "[3]", "value": 0.17, "unit": "µM"}]}, {"molecule": "GST-ElpB (natural protein)", "values": [{"measurement": "IC50 of inhibition of C3b deposition from normal human serum on IgM-coated wells (ELISA)", "setting": "[1]", "value": 0.57, "unit": "µM"}, {"measurement": "IC50 of inhibition of C4b deposition from normal human serum on IgM-coated wells (ELISA)", "setting": "[1]", "value": 0.33, "unit": "µM"}, {"measurement": "IC50 of inhibition of C5b-9 deposition from normal human serum on IgM-coated wells (ELISA)", "setting": "[1]", "value": 0.3, "unit": "µM"}, {"measurement": "IC50 of inhibition of classical-pathway lysis of antibody-sensitised sheep erythrocytes by normal human serum", "setting": "[1]", "value": 1.6, "unit": "µM"}, {"measurement": "Kd", "setting": "[4]", "value": 0.041, "unit": "µM"}, {"measurement": "Kd", "setting": "[5]", "value": 0.0067, "unit": "µM"}, {"measurement": "Kd", "setting": "[6]", "value": 0.0034, "unit": "µM"}]}, {"molecule": "tagless ElpB (natural protein)", "values": [{"measurement": "IC50 of inhibition of the cleavage of C2 by C1s enzyme (SDS/PAGE)", "setting": "[7]", "value": 0.87, "unit": "µM"}]}, {"molecule": "tagless ElpQ (natural protein)", "values": [{"measurement": "IC50 of inhibition of the cleavage of C2 (685 nM) by C1s enzyme (6.25 nM), SDS/PAGE densitometry of C2b, ElpQ 16 to 0.13 uM, 1 h at 37 C", "setting": "[7]", "value": 1.4, "unit": "µM"}, {"measurement": "IC50 of inhibition of the cleavage of C4 (616 nM) by C1s enzyme (6.25 nM), SDS/PAGE densitometry of C4 alpha', ElpQ 25 to 0.20 uM, 1 h at 37 C", "setting": "[7]", "value": 11, "unit": "µM"}]}, {"molecule": "human complement C1 complex (from UniProt P02745 23-245; P02746 28-253; P02747 29-245)", "values": [{"measurement": "Kd", "setting": "[2]", "value": 0.0056, "unit": "µM"}]}, {"molecule": "human C1r enzyme (activated C1r)", "values": [{"measurement": "Kd", "setting": "[2]", "value": 0.1, "unit": "µM"}, {"measurement": "Kd", "setting": "[3]", "value": 0.097, "unit": "µM"}]}, {"molecule": "GST-ElpQ (natural protein)", "values": [{"measurement": "IC50 of inhibition of C3b deposition from normal human serum on IgM-coated wells (ELISA)", "setting": "[1]", "value": 0.45, "unit": "µM"}, {"measurement": "IC50 of inhibition of C4b deposition from normal human serum on IgM-coated wells (ELISA)", "setting": "[1]", "value": 0.26, "unit": "µM"}, {"measurement": "IC50 of inhibition of C5b-9 deposition from normal human serum on IgM-coated wells (ELISA)", "setting": "[1]", "value": 1, "unit": "µM"}, {"measurement": "IC50 of inhibition of classical-pathway lysis of antibody-sensitised sheep erythrocytes by normal human serum", "setting": "[1]", "value": 1.5, "unit": "µM"}, {"measurement": "Kd", "setting": "[4]", "value": 0.011, "unit": "µM"}, {"measurement": "Kd", "setting": "[5]", "value": 0.0047, "unit": "µM"}, {"measurement": "Kd", "setting": "[6]", "value": 0.0038, "unit": "µM"}]}, {"molecule": "B1", "values": [{"measurement": "Kd", "setting": "[8]", "value": 0.015, "unit": "µM"}]}, {"molecule": "B2", "values": [{"measurement": "Kd", "setting": "[8]", "value": 0.0165, "unit": "µM"}]}]}
